According to paper PMC1142346:

B1: A/B partial duplex (23mer duplex with ss tails), fluorescent (dsDNA)
DNA 1: GCACTGGCCGTCGTTTTACGGTCGTGACTGGGAAAACCCTGGCG
DNA 2: TTTTTTTTTTTTTTTTTTTTTTAGCCGTAAAACGACGGCCAGTGC

Key:
Assay in all cases: fluorescence anisotropy
BLM642-1290 C1055N = BLM642-1290 C1055N (Homo sapiens, UniProt P54132 642-1290, C1055N)
[1] = target: BLM642-1290 C1055N/C1063N (Homo sapiens, UniProt P54132 642-1290, C1055N;C1063N)
BLM642-1290 C1063N = BLM642-1290 C1063N (Homo sapiens, UniProt P54132 642-1290, C1063N)
Chain of BLM642-1290 C1063N (P54132 642-1290 C1063N): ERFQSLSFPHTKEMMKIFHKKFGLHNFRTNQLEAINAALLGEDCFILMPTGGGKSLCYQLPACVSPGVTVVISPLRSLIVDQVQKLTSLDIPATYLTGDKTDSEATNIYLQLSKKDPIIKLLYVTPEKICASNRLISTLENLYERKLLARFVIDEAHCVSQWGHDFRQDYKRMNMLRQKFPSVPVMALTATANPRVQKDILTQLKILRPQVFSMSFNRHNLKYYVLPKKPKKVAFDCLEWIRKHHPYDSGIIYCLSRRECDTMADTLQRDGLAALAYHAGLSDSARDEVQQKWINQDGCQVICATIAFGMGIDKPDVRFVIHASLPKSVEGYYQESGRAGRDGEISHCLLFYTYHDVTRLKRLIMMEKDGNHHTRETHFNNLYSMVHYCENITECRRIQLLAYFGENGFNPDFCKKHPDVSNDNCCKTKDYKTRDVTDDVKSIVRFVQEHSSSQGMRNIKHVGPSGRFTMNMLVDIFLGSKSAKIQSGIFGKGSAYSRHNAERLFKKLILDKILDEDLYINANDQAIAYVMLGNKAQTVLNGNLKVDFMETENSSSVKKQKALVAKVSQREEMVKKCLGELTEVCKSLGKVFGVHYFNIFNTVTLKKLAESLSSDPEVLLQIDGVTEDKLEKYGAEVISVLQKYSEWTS

BLM642-1290 WT = BLM642-1290 WT (Homo sapiens, UniProt P54132 642-1290)
Chain of BLM642-1290 WT (P54132 642-1290): as the sequence (P54132 642-1290 C1063N) above, with N422C counted along it

[2] = target: BLM642-1290 zinc-demetalated (WTzn-) (Homo sapiens, UniProt P54132 642-1290)
Chain of BLM642-1290 zinc-demetalated (WTzn-) (P54132 642-1290): as the sequence (P54132 642-1290 C1063N) above, with N422C counted along it

Chain of BLM642-1290 C1055N (P54132 642-1290 C1055N): as the sequence (P54132 642-1290 C1063N) above, with C414N, N422C counted along it
Chain of BLM642-1290 C1055N/C1063N (P54132 642-1290 C1055N/C1063N): as the sequence (P54132 642-1290 C1063N) above, with C414N counted along it

Row | Binder | Kd (BLM642-1290 C1055N) | Kd [1] | Kd (BLM642-1290 C1063N) | Kd (BLM642-1290 WT) | Kd [2]
1 | B1 | 56 ± 1.8 nM | 209 ± 3.5 nM | – | – | –
2 | GGGTTAGGGTTAGGGTTAGGG (structured_DNA) [F21 G4 DNA] | – | – | 1990 nM | 4.57 nM | 4.85 nM
